The text below walks through data of patent US20230406950A1 (LYVGEN BIOPHARMA, published 2023).

In assay [1] the target is T1, human CD137 expressed on cells (human, UniProt Q07011 24-255).
T1 construct: whole, on cells; also called 4-1BB; TNFRSF9
The experiment in a line: FACS on CHO cells expressing human CD137 (MFI). As to the method:
(§1) Anti-GITR/CD137 bi-specific antibodies were analyzed by FACS for their binding properties to human GITR and/or human CD137 expressed on CHO cells. Briefly, cultured cells were harvested, counted and cell viability was evaluated using the Trypan Blue exclusion method. Viable cells were then adjusted to 2×10⁶ cells per mL in PBS containing 2% BSA. 100 μL of this cell suspension were further aliquoted per well into a V-bottom 96-well plate. […] After incubation for 2 hours at 4° C., cells were centrifuged (3 min, 1000× g), washed with 250 μL/well BSA-containing FACS Stain Buffer, resuspended and incubated for an additional 1 hour at 4° C. with 100 μL/well fluorochrome-conjugated anti-IgG antibody for detection of the bisepecific antibody. Cells were then washed with 250 μL/well BSA-containing FACS Stain Buffer, resuspended in 100 μL/well FACS Stain Buffer, acquired and analyzed using a FACS machine. Binding of the bispecific antibodies to human GITR or human CD137 expressing CHO cells were evaluated and the mean fluorescence intensity is plotted in histograms or dot plots.

Assay [2] addresses T2, human PD-L1 expressed on cells (human, UniProt Q9NZQ7 19-290).
T2 construct: whole, on cells; also called human PD-L1 expressed on CHO cells; Raji-PD-L1 cells
The experiment in a line: flow cytometry (FACS), MFI, CHO cells expressing human PD-L1. As to the method: as §1, with “Exemplary anti-PD-1/CD137” for “Anti-GITR/CD137”, “PD-1” for “GITR”
Exemplary anti-PD-L1/CD137 bi-specific antibodies were analyzed by FACS for their binding properties to human PD-L1 or human CD137 expressed on CHO cells, following the procedures disclosed in Examples 1 above.
Background: Flow cytometry measures light scatter and fluorescence of single cells or particles in a stream.

The target in assay [3] is T3, ECD portion of human CD137 protein (mouse IgG2a Fc tag) (human, UniProt Q07011 24-186).
T3 construct: extracellular domain; also called recombinant human CD137; not shown: mouse IgG2a Fc tag
Description: bridging ELISA: human CD137 ECD (mouse IgG2a Fc tag) coated, antibody titrated, then human PD-L1 ECD (His tag), HRP anti-His detection; A450-A620. As to the method: (§2) Exemplary anti-PD-L1/CD137 bi-specific antibodies were analyzed by ELISA for their simultaneous binding to recombinant human PD-L1 and human CD137. Briefly, the ECD portion of human CD137 protein (mouse IgG2a Fc tag) was diluted and coated onto an ELISA plate with a volume of 100 μL/well by incubation at 4° C. overnight. The next day, the plate was blocked with PBST-BSA buffer, then serially diluted samples of anti-PD-L1/CD137 bi-specific antibodies were pipetted into appropriate wells at 50 μL/well, and the plate was incubated for 1 h followed by Washing. Human PD-L1 ECD fragment (His tag) was added into the plate at 50 μL/well. After 1-hour incubation at room temperature, HRP-conjugated anti-His tag antibody was added into the plate at 100 μL/well and […]. The plate was incubated for 1 hour at room temperature followed by washing. TMB substrate solution was added at 100 μL/well and the color development was stopped by adding 100 uL/well Stop Solution (2N H₂SO₄). Absorbance at 450 nm and 620 nm was read by Tecan F200 Pro plate reader. GraphPad 7.0, “[Agonist] vs. response—Variable slope (four parameters)” was used to plot the binding data and calculate binding EC50 values.
A general note: ELISA stands for enzyme-linked immunosorbent assay.

Assay [4] concerns the target T4, Human PD-L1 ECD fragment (His tag) (human, UniProt Q9NZQ7 19-238).
T4 construct: extracellular domain; also called recombinant human PD-L1; not shown: His tag
The description is as above. How it is done:
as §2

T4 sequence (Q9NZQ7 19-238): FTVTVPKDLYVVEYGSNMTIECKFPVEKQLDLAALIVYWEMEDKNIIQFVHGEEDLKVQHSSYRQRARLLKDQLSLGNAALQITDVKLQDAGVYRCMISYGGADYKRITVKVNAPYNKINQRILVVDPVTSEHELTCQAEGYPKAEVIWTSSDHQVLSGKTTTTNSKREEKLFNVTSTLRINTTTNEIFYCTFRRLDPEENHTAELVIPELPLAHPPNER
T2 sequence (Q9NZQ7 19-290): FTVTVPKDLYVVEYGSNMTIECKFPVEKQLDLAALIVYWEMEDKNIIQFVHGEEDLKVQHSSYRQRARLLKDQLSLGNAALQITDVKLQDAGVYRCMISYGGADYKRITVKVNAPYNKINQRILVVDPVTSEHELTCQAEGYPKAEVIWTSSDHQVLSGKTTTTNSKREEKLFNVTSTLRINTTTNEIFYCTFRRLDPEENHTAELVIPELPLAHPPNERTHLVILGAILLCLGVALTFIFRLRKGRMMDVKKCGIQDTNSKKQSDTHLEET
T1 sequence (Q07011 24-255): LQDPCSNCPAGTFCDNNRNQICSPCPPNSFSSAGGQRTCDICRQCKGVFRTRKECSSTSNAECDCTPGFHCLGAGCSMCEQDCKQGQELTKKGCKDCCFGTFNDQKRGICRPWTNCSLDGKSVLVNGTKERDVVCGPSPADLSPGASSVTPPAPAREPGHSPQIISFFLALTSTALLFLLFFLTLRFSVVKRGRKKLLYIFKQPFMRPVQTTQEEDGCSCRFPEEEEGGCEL

B1: Ly757 (bispecific antibody, human IgG1, kappa)
heavy: QVQLVQSGAEVKKPGASVKVSCKASGYTFAGFEMHWVRQAPGQGLEWMGAIDPKTGGTDYNQKFKDRVTMTRDTSISTAYMELSRLRSDDTAVYYCARDLGYFDVWGQGTLVTVSSASTKGPSVFPLAPSSKSTSGGTAALGCLVKDYFPEPVTVSWNSGALTSGVHTFPAVLQSSGLYSLSSVVTVPSSSLGTQTYICNVNHKPSNTKVDKKVEPKSCDKTHTCPPCPAPELLGPSVFLFPPKPKDTLMISRTPEVTCVVVDVSHEDPEVKFNWYVDGVEVHNAKTKPREEQYNSTYRVVSVLTVLHQDWLNGKEYKCKVSNKALPAPIEKTISKAKGQPREPQVYTLPPSREEMTKNQVSLTCLVKGFYPSDIAVEWESNGQPENNYKTTPPVLDSDGSFFLYSKLTVDKSRWQQGNVFSCSVMHEALHNHYTQKSLSLSPGK
light: DIQMTQSPSSLSASVGDRVTITCRASQDIRSNLNWYQQKPGGAVKLLIYYTSRLHSGVPSRFSGSGSGTDYTLTISSLQPEDFATYFCQQSEKLPRTFGGGTKVEIRRTVAAPSVFIFPPSDEQLKSGTASVVCLLNNFYPREAKVQWKVDNALQSGNSQESVTEQDSKDSTYSLSSTLTLSKADYEKHKVYACEVTHQGLSSPVTKSFNRGECGGGGSGGGGSGGGGSGGGGSQVQLQESGPGLVKPSETLSLTCTVSGFSLTSYNVHWIRQPPGKGLEWIGVIWSGVRTDYNSVLKPRVTISVDTSKNQFSLKLSSVTAADTAVYYCARGTYDDNYHDVMDAWGQGTLVTVSSGGGGSGGGGSGGGGSGGGGSEIVLTQSPATLSLSPGERATLSCRASKSVRTGMHWYQQKPGQAPRLLIYGASNLESGIPARFSGSGSGTDFTLTISSLEPEDFAVYYCQQSWNHFTFGQGTKLEIK
notes: Anti-GITR/CD137: Ly1630 heavy chain; Ly1630 light chain fused to TM685 scFv (VH-VL)
In general, EC50 (read off the curve) refers to the concentration giving half of the maximal effect. The low end stands for greater potency, the high end for weaker potency. Take B1: the “EC50 (read off the curve)” value in assay [1] is ~0.2 µg/mL.

B2: Ly347 (bispecific antibody, human IgG1, kappa)
heavy: QVQLVQSGAEVKKPGASVKVSCKASGYTFTDFWMSWVRQAPGQGLEWMGQIYPNTGTTHSNEKFKGRVTMTRDTSTSTVYMELSSLRSEDTAVYYCARSYHISTTPNWFAYWGQGTLVTVSSASTKGPSVFPLAPSSKSTSGGTAALGCLVKDYFPEPVTVSWNSGALTSGVHTFPAVLQSSGLYSLSSVVTVPSSSLGTQTYICNVNHKPSNTKVDKKVEPKSCDKTHTCPPCPAPELLGPSVFLFPPKPKDTLMISRTPEVTCVVVDVSHEDPEVKFNWYVDGVEVHNAKTKPREEQYNSTYRVVSVLTVLHQDWLNGKEYKCKVSNKALPAPIEKTISKAKGQPREPQVYTLPPSREEMTKNQVSLTCLVKGFYPSDIAVEWESNGQPENNYKTTPPVLDSDGSFFLYSKLTVDKSRWQQGNVFSCSVMHEALHNHYTQKSLSLSPG
light: DIQMTQSPSSLSASVGDRVTITCKASQNVYKKLEWYQQKPGKVPKVLIYHTNILQTGVPSRFSGSGSGTDYTLTISSLQPEDVATYYCYQWNSGPTFGGGTKVEIKRTVAAPSVFIFPPSDEQLKSGTASVVCLLNNFYPREAKVQWKVDNALQSGNSQESVTEQDSKDSTYSLSSTLTLSKADYEKHKVYACEVTHQGLSSPVTKSFNRGECGGGGSGGGGSGGGGSGGGGSQVQLVQSGAEVKKPGASVKVSCKASGYTFAGFEMHWVRQAPGQGLEWMGAIDPKTGGTDYNQKFKDRVTMTRDTSISTAYMELSRLRSDDTAVYYCARDLGYFDVWGQGTLVTVSSGGGGSGGGGSGGGGSGGGGSDIQMTQSPSSLSASVGDRVTITCRASQDIRSNLNWYQQKPGGAVKLLIYYTSRLHSGVPSRFSGSGSGTDYTLTISSLQPEDFATYFCQQSEKLPRTFGGGTKVEIR
notes: Anti-PD-L1/CD137: Ly076 heavy chain; Ly076 light chain fused to Ly1630 scFv (VH-VL)
On to B2, for which the binding result in assay [2] and in assay [4] was “binds” each time. In addition, the half-maximal effective concentration (EC50 (read off the curve)) in assay [3] is ~0.2 µg/mL.

B3: Ly348 (bispecific antibody, human IgG1, kappa)
heavy: B2 heavy
light: DIQMTQSPSSLSASVGDRVTITCKASQNVYKKLEWYQQKPGKVPKVLIYHTNILQTGVPSRFSGSGSGTDYTLTISSLQPEDVATYYCYQWNSGPTFGGGTKVEIKRTVAAPSVFIFPPSDEQLKSGTASVVCLLNNFYPREAKVQWKVDNALQSGNSQESVTEQDSKDSTYSLSSTLTLSKADYEKHKVYACEVTHQGLSSPVTKSFNRGECGGGGSGGGGSGGGGSGGGGSDIQMTQSPSSLSASVGDRVTITCRASQDIRSNLNWYQQKPGGAVKLLIYYTSRLHSGVPSRFSGSGSGTDYTLTISSLQPEDFATYFCQQSEKLPRTFGGGTKVEIRGGGGSGGGGSGGGGSGGGGSQVQLVQSGAEVKKPGASVKVSCKASGYTFAGFEMHWVRQAPGQGLEWMGAIDPKTGGTDYNQKFKDRVTMTRDTSISTAYMELSRLRSDDTAVYYCARDLGYFDVWGQGTLVTVSS
notes: Anti-PD-L1/CD137: Ly076 heavy chain; Ly076 light chain fused to Ly1630 scFv (VL-VH)
Turning to B3, the binding result in assay [2] and in assay [4] was “binds” throughout. Besides, the “EC50 (read off the curve)” value in assay [3] is ~0.1 µg/mL.

B4: Ly346 (bispecific antibody, human IgG1, kappa)
heavy: QVQLVQSGAEVKKPGASVKVSCKASGYTFTDFWMSWVRQAPGQGLEWMGQIYPNTGTTHSNEKFKGRVTMTRDTSTSTVYMELSSLRSEDTAVYYCARSYHISTTPNWFAYWGQGTLVTVSSASTKGPSVFPLAPSSKSTSGGTAALGCLVKDYFPEPVTVSWNSGALTSGVHTFPAVLQSSGLYSLSSVVTVPSSSLGTQTYICNVNHKPSNTKVDKKVEPKSCDKTHTCPPCPAPELLGPSVFLFPPKPKDTLMISRTPEVTCVVVDVSHEDPEVKFNWYVDGVEVHNAKTKPREEQYNSTYRVVSVLTVLHQDWLNGKEYKCKVSNKALPAPIEKTISKAKGQPREPQVYTLPPSREEMTKNQVSLTCLVKGFYPSDIAVEWESNGQPENNYKTTPPVLDSDGSFFLYSKLTVDKSRWQQGNVFSCSVMHEALHNHYTQKSLSLSPGGGGGSGGGGSGGGGSGGGGSQVQLVQSGAEVKKPGASVKVSCKASGYTFAGFEMHWVRQAPGQGLEWMGAIDPKTGGTDYNQKFKDRVTMTRDTSISTAYMELSRLRSDDTAVYYCARDLGYFDVWGQGTLVTVSSGGGGSGGGGSGGGGSGGGGSDIQMTQSPSSLSASVGDRVTITCRASQDIRSNLNWYQQKPGGAVKLLIYYTSRLHSGVPSRFSGSGSGTDYTLTISSLQPEDFATYFCQQSEKLPRTFGGGTKVEIR
light: DIQMTQSPSSLSASVGDRVTITCKASQNVYKKLEWYQQKPGKVPKVLIYHTNILQTGVPSRFSGSGSGTDYTLTISSLQPEDVATYYCYQWNSGPTFGGGTKVEIKRTVAAPSVFIFPPSDEQLKSGTASVVCLLNNFYPREAKVQWKVDNALQSGNSQESVTEQDSKDSTYSLSSTLTLSKADYEKHKVYACEVTHQGLSSPVTKSFNRGEC
notes: Anti-PD-L1/CD137: Ly076 heavy chain fused to Ly1630 scFv (VH-VL); Ly076 light chain
In the case of B4, the binding result in assay [2] and in assay [4] was “binds” each time. The “EC50 (read off the curve)” value in assay [3] is ~0.1 µg/mL.
